Test results as given in patent publication US8597660B2, “Therapeutic approach to neurodegenerative disorders using a TFP5-peptide” (The United States of America, as represented by the …, priority 2010, dated 2013).
Entries after “also recorded” stand apart in the source; their conditions may differ.

Key:
cortical neurons = assay: TUNEL assay of Aβ-induced apoptosis in cortical neurons; type: cell-based, rat; settings: neurons transfected with GFP-P5, Aβ 6 h
Description: Primary cortical neuron cells were cultured for 5 days on glass coverslips coated with poly-L-lysine, and transfected with or without P5 using Lipofectamine 2000. After 24 hours, TUNEL staining was done according to the manufacturer's instructions. Cells were washed three times in PBS, fixed for 1 hour at room temperature in fresh 4% paraformaldehyde in PBS, and permeabilized (0.1% Triton X-100 in 0.1 sodium citrate) for 2 minutes on ice. After washing 2× with PBS, TUNEL reaction mixture (50 μl) was added and incubated in a humidified atmosphere at 37° C. for 1 hour. TUNEL staining and fluorescent images were visualized with a Zeiss LSM-510 laser-scanning confocal microscope. Images were processed and merged by Adobe Photoshop software.
To determine whether P5 inhibited neuronal apoptosis induced by Aβ, primary cortical neurons (5 days in culture (DIC)) were transfected with P5-GFP using Lipofectamine 2000. After 24 hours, cells were exposed to Aβ for 6 hours. The neurons were fixed and subjected to TUNEL staining, while P5 was visualized by (green fluorescent protein) GFP. […] The data are quantified in FIG. 5B. More than 85% of nontransfected neurons were apoptosis positive. […] Cortical neurons infected with or without P5 and treated with Aβ for 6 hours were assayed for cleaved caspase 3 by Western blot analysis (FIG. 5C). […]. […] The data are quantified in FIG. 5D.

Cdk5/P35 [1] = target: T1, Cdk5/P35 (Homo sapiens, UniProt Q00535); assay: Cdk5/P35 kinase assay after pre-incubation with β-tubulin; type: biochemical
Description: (§1) Tubulin polymerization was performed as detailed in a previous report (Hou et al., J. Biol. Chem., 282(26), 18666-18670, 2007). Briefly, active kinase Cdk5/P35 (2 ng/μL) or active Cdk5/P25 (1 ng/μL) were incubated with β-tubulin (enzyme: tubulin at 1:100) in the PEM buffer (80 mM PIPES, 2 mM MgCl2, 1 mM EGTA PH 7.0) supplemented with 1 mM GTP at 35° C. for 45 minutes. Following the incubation, Cdk5 kinase assays were performed with or without the addition of 0.45 μM or 0.90 μM P5.
(§2) To further explore this possibility, β-tubulin (which is enriched in neurons) was used to perform a study in vitro to mimic P35 interactions in cells. Cdk5/P35 and Cdk5/P25 active kinases were pre-incubated with β-tubulin (Cdk5 kinase:tubulin=1:100) respectively at 35° C. for 45 minutes to 1 hour under conditions that would promote tubulin polymerization, followed by a Cdk5 kinase assay with/without the addition of P5. […] Cdk5/P25 activity, however, was inhibited 60% after pre-incubation at the lower P5 concentration (0.45 μM) (FIG. 9B, lane 4 compared with lane 1) (p<0.01). […] On the other hand, P25, lacking the P10 domain, fails to bind these proteins, and P5 readily binds with Cdk5 in the Cdk5/P25 complex to inhibit activity.

Cdk5/P35 [2] = target: T1, Cdk5/P35; assay: In vitro kinase (pad) assay of active Cdk5/P35 with histone H1 as substrate; type: biochemical; settings: 0.7 μM P5
Description: Kinase assays were performed as previously described (Veeranna, et al., J Neurosci 18(11), 4008-4021, 1998). Briefly, 7 days in culture (7 DIC) primary rat cortical neurons were infected with P25, P35, Cdk5 wild-type, dominant negative-Cdk5 and P5 using the lentiviral gene delivery as described earlier. Cdk5 was immunoprecipitated using the polyclonal C8 antibody overnight at 4° C. and immunoglobulin isolated using Protein A sepharose beads for 2 hours at 4° C. Immunoprecipitates were washed three times with lysis buffer and then once with 1× kinase buffer containing 20 mM Tris-Cl pH 7.4, 1 mM EDTA, 1 mM EGTA, 10 mM MgCl2, 10 mM sodium fluoride and 1 mM sodium orthovanadate. Endogenous Cdks were immunoprecipitated from HEK 293 cells using their respective antibodies and treated as above. […]
In a dose-dependent kinase assay the effective inhibitory concentration of P5 for both the Cdk5/P25 and Cdk5/P35 complexes was evaluated. […]
P5, a 24 amino acid peptide derived from Cdk5 regulator p35, was modified by conjugating it with TAT PTD at the C-terminal end and with FITC (using a GGG linker) at the N-terminus to produce a fluorescent (FITC-labeled) TFP5 (SEQ ID NO: 2) peptide. In a dose-dependent kinase assay the effective inhibitory concentration of TFP5 for both the Cdk5/P25 and Cdk5/P35 complexes was evaluated. […]

Cdk5/P25 [3] = target: T2, Cdk5/P25 (Homo sapiens, UniProt Q00535); assay: Cdk5/P25 kinase assay after pre-incubation with β-tubulin; type: biochemical
Description: as §1, §2

Cdk5/P25 [4] = target: T2, Cdk5/P25; assay: In vitro kinase (pad) assay of active Cdk5/P25 with histone H1 as substrate; type: biochemical
Description: Kinase assays were performed as previously described (Veeranna, et al., J Neurosci 18(11), 4008-4021, 1998). Briefly, 7 days in culture (7 DIC) primary rat cortical neurons were infected with P25, P35, Cdk5 wild-type, dominant negative-Cdk5 and P5 using the lentiviral gene delivery as described earlier. Cdk5 was immunoprecipitated using the polyclonal C8 antibody overnight at 4° C. and immunoglobulin isolated using Protein A sepharose beads for 2 hours at 4° C. Immunoprecipitates were washed three times with lysis buffer and then once with 1× kinase buffer containing 20 mM Tris-Cl pH 7.4, 1 mM EDTA, 1 mM EGTA, 10 mM MgCl2, 10 mM sodium fluoride and 1 mM sodium orthovanadate. Endogenous Cdks were immunoprecipitated from HEK 293 cells using their respective antibodies and treated as above. Kinase assays were performed in the same buffer containing 1 mM DTT, 0.1 mM ATP and 0.185 MBq [γ-32P] ATP with 20 μg of histone H1 as the substrate. Phosphorylation was performed in a final volume of […] incubated at 30° C. for 60 minutes, stopped by the addition of 10% SDS sample buffer and heating at 95° C. for 5 minutes. Samples were separated by SDS-PAGE, gels were stained with Coomassie, destained, dried and exposed to autoradiography. In pad assays, 25 μl aliquots of the incubation mixture were placed on a Whatman p80 paper square, washed and dried and placed in a scintillation vial for counting.
These are GST-P1 (E211-A277 of SEQ ID NO: 16), 67 amino acid residues; GST-P2 (M237-A277), 41 residues; GST-P3 (E221-L267 of SEQ ID NO: 16), 47 residues; GST-P4 (E221-L249 of SEQ ID NO: 16), 29 residues and GST-P5 (K254-A277 of SEQ ID NO: 16) 24 residues. Each was incubated with active Cdk5/P25 in a kinase assay in vitro. […] FIG. 10 provides a comparison of P5 and CIP, relative to P35.
In a dose-dependent kinase assay the effective inhibitory concentration of P5 for both the Cdk5/P25 and Cdk5/P35 complexes was evaluated. His-P5 peptide was added at different concentrations to the in vitro assay containing 100 μM [γ32-P] ATP and histone H1. Inhibition increased progressively with increasing P5 concentration in both complexes (Compare FIGS. 2A, 2B with 2C, 2D).
P5, a 24 amino acid peptide derived from Cdk5 regulator p35, was modified by conjugating it with TAT PTD at the C-terminal end and with FITC (using a GGG linker) at the N-terminus to produce a fluorescent (FITC-labeled) TFP5 (SEQ ID NO: 2) peptide. In a dose-dependent kinase assay the effective inhibitory concentration of TFP5 for both the Cdk5/P25 and Cdk5/P35 complexes was evaluated. His-P5 peptide was added at different concentrations to the in vitro assay containing 100 μM [γ32-P] ATP and histone H1. […] Data represent means of four independent experiments with error bars representing SEM (*p≦0.05, **p≦0.001).

T2 sequence (Q00535 whole entry, species assumed): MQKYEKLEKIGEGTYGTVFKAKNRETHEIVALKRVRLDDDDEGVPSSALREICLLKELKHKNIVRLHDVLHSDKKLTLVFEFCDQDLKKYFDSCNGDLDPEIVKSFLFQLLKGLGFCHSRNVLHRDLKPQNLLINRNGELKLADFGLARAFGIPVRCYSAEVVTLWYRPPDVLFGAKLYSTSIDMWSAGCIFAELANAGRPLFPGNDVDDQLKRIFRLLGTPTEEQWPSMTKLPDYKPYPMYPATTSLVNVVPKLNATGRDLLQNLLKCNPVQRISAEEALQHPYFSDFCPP
T1 sequence (Q00535 whole entry, species assumed): as above

P5: 24 residue peptide derived from Cdk5 activator P35 (K254-A277 of SEQ ID NO: 16); Cdk5 inhibitory peptide (KEAFWDRCLSVINLMSSKMLQINA; listed as Homo sapiens)
Aβ-induced apoptosis (TUNEL) (cortical neurons): virtually all P5 transfected cells were protected from Aβ-induced apoptosis; also recorded: clearly inhibited Aβ-mediated neuronal apoptosis | Inhibition of Cdk5/P35 activity pre-incubated with polymerized tubulin (Cdk5/P35 [1]; 0.45 μM P5): no effect on pre-incubated Cdk5/P35 activity; also recorded: not inhibited; also recorded: had no effect on Cdk5/P35 | Inhibition of Cdk5/P35 activity with unpolymerized tubulin (no pre-incubation) (Cdk5/P35 [1]; 0.45 μM P5): P5 inhibits both kinases equally; also recorded: inhibited both Cdk5/P35 and Cdk5/P25 activities equally; also recorded: inhibited both complexes equally | Inhibition of Cdk5/P35 activity pre-incubated with polymerized tubulin (Cdk5/P35 [1]; 0.9 μM P5): both kinase complexes are inhibited equally; also recorded: both Cdk5 complexes were inhibited | Inhibition of Cdk5/P35 activity (Cdk5/P35 [2]): approximately 70% | Inhibition of Cdk5/P25 activity with unpolymerized tubulin (no pre-incubation) (Cdk5/P25 [3]; 0.45 μM P5): P5 inhibits both kinases equally; also recorded: inhibited both Cdk5/P35 and Cdk5/P25 activities equally; also recorded: inhibited both complexes equally | Inhibition of Cdk5/P25 activity pre-incubated with polymerized tubulin (Cdk5/P25 [3]; 0.9 μM P5): both kinase complexes are inhibited equally; also recorded: both Cdk5 complexes were inhibited | Inhibition of Cdk5/P25 activity (Cdk5/P25 [4]; 0.7 μM P5): approximately 70% | Specificity of inhibition, Cdk5/P25 versus Cdk5/P35 (Cdk5/P25 [4]; in vitro (test tube) assay, 0.05 to 1.2 μM): equally inhibits each Cdk5 complex in a dose-dependent manner; also recorded: not specific for Cdk5/P25; also recorded: non-specific in vitro | Inhibition of Cdk5/P25 activity, comparison among peptides and CIP (Cdk5/P25 [4]; in vitro kinase assay, histone H1, FIG. 1): most effective inhibitor of Cdk5/P25; also recorded: more effective inhibitors of Cdk5/P25 activity than CIP
